In patent US20230002503A1:

Assays:
[1] = target: human CAIX on CHO cells (CHO-hCAIX) (human) (UniProt Q16790); assay: flow cytometry on CHO-hCAIX cells
[2] = target: human CAIX antigen (purchased from AcroBiosystems) (human) (UniProt Q16790); assay: BLI (ForteBio), method of Example 3
[3] = target: monkey CAIX on CHO cells (CHO-cyCAIX) (monkey); assay: flow cytometry on CHO-cyCAIX cells
[4] = target: murine CAIX on CHO cells (CHO-mCAIX) (mouse) (UniProt Q8VHB5); assay: flow cytometry on CHO-mCAIX cells
Sequence of murine CAIX on CHO cells (CHO-mCAIX) (mouse) (Q8VHB5 32-437): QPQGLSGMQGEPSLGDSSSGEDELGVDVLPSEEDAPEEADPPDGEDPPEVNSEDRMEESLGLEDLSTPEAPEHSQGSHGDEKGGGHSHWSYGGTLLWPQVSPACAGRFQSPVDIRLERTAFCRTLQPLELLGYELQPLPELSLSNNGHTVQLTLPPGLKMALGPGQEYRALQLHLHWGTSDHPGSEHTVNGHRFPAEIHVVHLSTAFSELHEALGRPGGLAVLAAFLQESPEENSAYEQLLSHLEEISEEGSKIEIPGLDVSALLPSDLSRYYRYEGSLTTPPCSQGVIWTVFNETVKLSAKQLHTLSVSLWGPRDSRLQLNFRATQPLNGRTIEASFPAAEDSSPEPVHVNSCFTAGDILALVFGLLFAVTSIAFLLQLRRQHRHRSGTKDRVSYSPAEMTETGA

**Q.** Which results are given for Gerentuximab (antibody)?
**A.** EC50 [1]: 16.5 nM; Kd [2]: 1.01 nM; koff [2]: 0.0001 s⁻¹; kon [2]: 98600 M⁻¹ s⁻¹; EC50 [3]: 27.9 nM; EC50 [4]: 35.1 nM
